Test results taken from patent US20260167959A1, “APTAZYME-BASED REGULATABLE GENE EXPRESSION SYSTEMS” (REJUVENATE BIO INC, priority 2022, published 2026).

B1: RA210: SEQ ID NO 210; theophylline inducible aptazyme (nucleic acid)
chain: GCTGTCACCGGAATACCAGCATCGTCTTGATGCCCTTGGAAGTCCGGTCTGATGAGTCCAAAAAGGACGAAACAGC
modifications: chemistry not given here
notes: theophylline inducible aptazyme
B2: RA250 (nucleic acid)
DNA: GCGCGAGTGATACCAGCATCGTCTTGATGCCCTTGGCAGCACTTCCTGGATTCGCGGAAACGCGTACATCCAGCTGACGAGTCCCAAATAGGACGAAACGCGC
modifications: expressed or natural sequence

Tests used:
Renilla luciferase RNA = experiment: Barcoded aptazyme variant library screen: un-cleaved Renilla luciferase RNA by barcode read counts, HEK293-T cells; assay type: cell-based; conditions: un-cleaved Renilla luciferase RNA, HEK293-T cells cultured with 1 mM theophylline (ON) over without theophylline (OFF); barcode read counts, triplicate
Summary of the method: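 Aptazyme variants (seven theophylline aptamers inserted after each T3H48 ribozyme nucleotide, 9-nt barcoded) cloned into the 3′ UTR of Renilla luciferase in psiCHECK-2; cells cultured ± theophylline, in triplicate. RNA and DNA barcodes amplified and sequenced; normalized read counts gave un-cleaved RNA fraction and ON/OFF fold-change.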

GFP = conditions: HEK293-T cells, dual FP plasmid, 24 hours post-transfection
Procedure: The theophylline inducible aptazymes in Table 4 were tested using a dual fluorescent protein (FP) expression system.
The plasmids were transfected into HEK293-T cells, and the transfected cells were treated with (“ON”) or without (“OFF”) theophylline, as described in Example 1. Green FP (GFP) expression was measured as relative units 24 hours post-transfection (FIG. 4). […] The negative control used was cells transfected with analogous dual FP plasmid containing only the ribozyme sequence, and represented the maximal “OFF” state possible for the ribozyme.

Molecule	Fold change in RNA expression between the ON state and the OFF state (Renilla luciferase RNA) [fold]	Fold-change in GFP expression, presence of theophylline over absence of theophylline (GFP) [×]
B1	1.2	2.55
B2	1.1	–
